Sequences and labels used below:
B1: P056028-C-05 (protein)
chain: MGPTPTATAAGAAVAAASAAEQAAFRLVGHRNFVRFNPRSDRFQTLAFHHVELWCADAASAAGRFSFALGVPLAARSDLSTGNSAHASLLLRSGSLSLLFTAPYAHGADAATAALPSFSAAAARRFAADHGLAVRAVALRVADAEDAFRASVAAGARPAFGPVDLGRGFRLAEVELYGDVVLRYVSYPDGAAGEPFLPGFEGVASPGAADYGLSRFDHIVGNVPELAPAAAYMAGFTGFHEFAEFTTEDVGTTESGLNSMALANNSENVLLPLNEPVHGTKRRSQIQTFLDHHGGPGVQHIALASDDVLRTLREMRARSAMGGFEFLPPPLSDYYDGVRKCAGDVLTEAQINECQRLGVMVDRDDEGVLLQIFTKPVGDRPTFFLEIIQRIGCMEKDEKGQEYQKGGCGGFGKGNFGQLFKSIEDYEKSLEAKQAAAAATAQGS
modifications: Zea mays variant form created by artificial means.
B2: P056028-B-01 (protein)
chain: B1 chain with R356E, I387L
modifications: Zea mays variant form created by artificial means.
B3: P056028-B-10 (protein)
chain: B1 chain with L182M, K340R, R356E, L385V
modifications: Zea mays variant form created by artificial means.
B4: P056028-A-10 (protein)
chain: B1 chain with P206Q, Y211L, K340R, R356K
modifications: Zea mays variant form created by artificial means.
B5: P056028-A-08 (protein)
chain: B1 chain with L182M, P206Q, H278R, R356E, A438T
modifications: Zea mays variant form created by artificial means.
B6: P056028-A-07 (protein)
chain: B1 chain with A191G, P206Q, Y211L, K340R, R356E
modifications: Zea mays variant form created by artificial means.
B7: P056028-A-09 (protein)
chain: B1 chain with P158K, Y211L, S214N, K340R, R356E
modifications: Zea mays variant form created by artificial means.
B8: P056028-A-04 (protein)
chain: B1 chain with K340R, L385I
modifications: Zea mays variant form created by artificial means.
B9: P056028-A-05 (protein)
chain: B1 chain with P206Q, R356E
modifications: Zea mays variant form created by artificial means.
B10: P056028-A-11 (protein)
chain: B1 chain with K340R, R356E, G417S
modifications: Zea mays variant form created by artificial means.

The text below walks through data of patent publication US11015206B2, “Compositions and methods comprising sequences having hydroxyphenylpyruvate dioxygenase (HPPD) activity” (PIONEER HI-BRED INTERNATIONAL, INC., priority 2014, dated 2021).

Where a chain is given by its changes, count along the chain named.

For the first data set, the system named is 4-hydroxyphenylpyruvate dioxygenase (HPPD). As to the kind of experiment: ON rate ratio: HPPD reaction rate with vs without inhibitor in the 70 to 90 second interval. The conditions noted are these: Table 7; tembotrione; combinatorial variants. The data set is classed as biochemical, Z. mays. An excerpt:
(§1) Higher KD (reduced affinity or increased insensitivity) can be attained with a numerically smaller ON rate, a larger OFF rate or both. To detect and quantify changes in kON and kOFF, observations of the time course of an HPPD reaction as inhibitor binds to and inactivates the enzyme (kON), or is released from a pre-formed enzyme-inhibitor complex (kOFF) were used, as shown in FIGS. 13A and 13B. In practice, a quantitative indicator of kON was obtained by monitoring the time courses of HPPD reactions containing 60 or 120 nM HPPD and 100 μM HPP in the presence and absence of 4 μM inhibitor (e.g., mesotrione or tembotrione). The ratio of the reaction rate with inhibitor to that without inhibitor during the 70 to 90 second interval of the reaction was termed the “ON rate ratio”. The smaller the actual kON, the more slowly the HPPD reaction decelerates and the higher the value is for the ON rate ratio. FIGS. 13A and 13B illustrate the contrasting reaction velocity in the 70-90 sec interval for maize wild-type HPPD (FIG. 13A) versus an improved variant (SEQ ID NO:78) (FIG. 13B).
Turning to B1, the ON rate ratio turned out to be 0.715.

With B2, the ON rate ratio is given as 0.745.

As for B3, the ON rate ratio was 0.703.

On to B4, for which the ON rate ratio is recorded as 0.707.

On to B5, for which the ON rate ratio is given as 0.669.

Take B6: the ON rate ratio amounted to 0.726.

On to B7, for which the ON rate ratio came to 0.692.

In the case of B8, the ON rate ratio turned out to be 0.724.

As to B9, the ON rate ratio was found to be 0.707.

Consider B10, for which the ON rate ratio came to 0.706.

A further data set shares this test system. The data set is described as follows: OFF rate ratio: release of inhibitor from pre-formed enzyme-inhibitor complex. The data set is classed as biochemical, Z. mays. The conditions noted are these: Table 7; tembotrione; combinatorial variants. How it is done:
A quantitative indicator of kOFF can be obtained by observing the time course of an HPPD reaction as inhibitor is released from a pre-formed enzyme-inhibitor complex. HPPD and inhibitor were incubated together at concentrations of 7.2 and 8 μM, respectively. Incubations with the same concentrations of enzyme but no inhibitor were done in parallel. After 1 hr at room temperature, 5 to 10 μl of the enzyme-inhibitor complex was dispensed into the wells of the assay plate. Reactions were started with the addition of 290 to 295 μl of 25 mM Hepes, pH 7, 2 mM ascorbate, 10 μM FeSO4, 100 μM HPP and 50 nM HGD. The reactions were monitored at 320 nm for 12 min. Reaction velocity accelerates as inhibitor is released from the enzyme until a steady state is reached, during which the reaction velocity is constant. The ratio of the steady state rate in mixtures containing herbicidal inhibitor to the initial velocity of mixtures lacking inhibitor is termed the “OFF rate ratio”.
Another parameter to record is the time span required for the reactions with inhibitor to reach the steady state. FIGS. 13C and 13D illustrate the contrasting time span in which maize wild-type HPPD (FIG. 13C) and an improved variant (SEQ ID NO:78) (FIG. 13D) dissociated from mesotrione, as indicated by the accelerating reaction rates. The plateau of absorbance is due to exhaustion of the substrate. With the improved variant, not only was the steady state attained in a shorter time span (80 sec for the variant versus 280 sec for wild type), the velocity attained was twice as high as with wild type, though the enzymes were present at the same concentration (240 nM). This is because a larger fraction of the variant enzyme is free of inhibitor compared to the wild-type enzyme, and the kcat for both is nearly the same, about 220 min^−1.
On to B1, for which the OFF rate ratio turned out to be 0.375.

On to B2, for which the OFF rate ratio is recorded as 0.309.

With B3, the OFF rate ratio is 0.327.

Consider B4, for which the OFF rate ratio stood at 0.367.

Consider B5, for which the OFF rate ratio is 0.324.

Turning to B6, the OFF rate ratio is 0.329.

Turning to B7, the OFF rate ratio is given as 0.339.

For the molecule B8, the OFF rate ratio stood at 0.133.

As to B9, the OFF rate ratio is given as 0.280.

For the molecule B10, the OFF rate ratio is 0.366.

A further data set has the same test system. The data set is described as follows: Insensitivity parameter (ON × OFF) and trait fitness (ON × OFF × kcat/KM or × kcat). The class given is biochemical, Z. mays. Further details: key to ON × OFF / Insensitivity, mesotrione, ON × OFF / Insensitivity, tembotrione, ON × OFF / Insensitivity, topramezone, ON × OFF / Insensitivity, sulcotrione, ON × OFF / Insensitivity, isoxaflutole (DKN), ON × OFF: insensitivity = ON rate ratio × OFF rate ratio (surrogate for KD). Conditions: Megatable 3; shuffled variants. An excerpt: Because substrate and inhibitors bind in the same site, the high concentration of substrate present may competitively trap the inhibitor and prevent it from binding again. To be sure that improvement in ON rates is being taken into account, the ON and OFF rate ratios were multiplied, creating an “insensitivity parameter” that is a surrogate for KD. KD is expressed as kOFF/kON, but because the ON rate ratio is an inverse parameter (the higher the value of ON rate ratio, the lower the value of the represented phenomenon, kON), it is appropriate to multiply ON and OFF rate ratios rather then divide OFF rate ratio by ON rate ratio. Another parameter, which quantifies the combined catalytic and insensitivity properties of the enzyme is kcat/KM×ON rate ratio×OFF rate ratio, and is termed “trait fitness”. This parameter is intended to have a meaning similar to the commonly used expression kcat/KM×Ki.
Consider B1, for which the “ON × OFF” value was 0.268 and the “ON × OFF × kcat” value came out at 5.80.

As for B2, the “ON × OFF” value was determined as 0.230 and the “ON × OFF × kcat” value stood at 4.28.

As for B3, the “ON × OFF” value was found to be 0.230 and the “ON × OFF × kcat” value is reported as 4.12.

For the molecule B4, the “ON × OFF” value stood at 0.260 and the “ON × OFF × kcat” value amounted to 4.35.

With B5, the “ON × OFF” value worked out at 0.217 and the “ON × OFF × kcat” value was 5.68.

For the molecule B6, the “ON × OFF” value is reported as 0.239 and the “ON × OFF × kcat” value came out at 4.65.

With B7, the “ON × OFF” value is given as 0.235 and the “ON × OFF × kcat” value was determined as 3.26.

As to B8, the “ON × OFF” value is on record as 0.096 and the “ON × OFF × kcat” value turned out to be 1.06.

Regarding B9, the “ON × OFF” value stood at 0.198 and the “ON × OFF × kcat” value worked out at 3.50.

Regarding B10, the “ON × OFF” value was 0.258 and the “ON × OFF × kcat” value came out at 2.21.

Staying with this data set, now noted: Table 7; tembotrione; combinatorial variants.
Turning to B1, the “ON × OFF” value is listed as 0.268 and the “ON × OFF × kcat” value came to 5.80.

Regarding B2, the “ON × OFF” value came to 0.230 and the “ON × OFF × kcat” value amounted to 4.28.

Take B3: the “ON × OFF” value was determined as 0.230 and the “ON × OFF × kcat” value amounted to 4.12.

For the molecule B4, the “ON × OFF” value came out at 0.260 and the “ON × OFF × kcat” value is 4.35.

In the case of B5, the “ON × OFF” value is given as 0.217 and the “ON × OFF × kcat” value was found to be 5.68.

For the molecule B6, the “ON × OFF” value amounted to 0.239 and the “ON × OFF × kcat” value is given as 4.65.

As to B7, the “ON × OFF” value turned out to be 0.235 and the “ON × OFF × kcat” value is 3.26.

Take B8: the “ON × OFF” value is reported as 0.096 and the “ON × OFF × kcat” value was 1.06.

Turning to B9, the “ON × OFF” value is 0.198 and the “ON × OFF × kcat” value is given as 3.50.

For the molecule B10, the “ON × OFF” value stood at 0.258 and the “ON × OFF × kcat” value is reported as 2.21.

A further data set has the same test system. The data set is described as follows: Estimate of kcat from initial rate at saturating hydroxyphenylpyruvate without inhibitor (ON rate ratio assay). The data set is classed as biochemical, Z. mays. Conditions: Megatable 3; shuffled variants.
Excerpt: as §1
Thirty nine variants were desensitized to tembotrione compared with the backbone enzyme, Round 7, variant 9070 (SEQ ID NO:2) and all were desensitized compared with maize wild type HPPD (SEQ ID NO:1). Because the assay for ON rate ratio includes an initial rate measurement at saturating hydroxyphenylpyruvate without inhibitor and with known enzyme concentration, an estimate of kcat was available. Taking into account kcat and insensitivity parameters, 30 variants were selected for measurement of substrate saturation kinetic parameters and re-evaluation of insensitivity to tembotrione. The kinetic and insensitivity parameters were determined as described in Example 1, and were multiplied to generate the “trait fitness” parameter. The complete list of variants, i.e., of selected single substitutions in SEQ ID NO:2, analyzed with multiple inhibitors and the results obtained are shown in Table 6. The same set of 30 variants were evaluated for insensitivity to mesotrione, sulcotrione, isoxaflutole (its active diketonitrile form, abbreviated DKN in Table 6) and topramezone.
One may read the kcat as the maximal rate divided by the concentration of active sites. Take B1: the kcat is 0.362 s⁻¹.

For B2, the kcat is 0.31 s⁻¹.

For B3, the kcat is 0.298 s⁻¹.

With B4, the catalytic constant (kcat) is 0.28 s⁻¹.

With B5, the kcat was 0.437 s⁻¹.

For B6, the kcat was 0.325 s⁻¹.

With B7, the kcat is 0.232 s⁻¹.

Regarding B8, the catalytic constant (kcat) was 0.185 s⁻¹.

In the case of B9, the kcat was 0.295 s⁻¹.

As to B10, the kcat is 0.143 s⁻¹.

The same data set, now with this note: Table 7; combinatorial variants.
Regarding B1, the kcat was 0.362 s⁻¹.

For B2, the kcat was 0.31 s⁻¹.

With B3, the kcat is 0.298 s⁻¹.

For B4, the kcat is 0.28 s⁻¹.

As to B5, the kcat is 0.437 s⁻¹.

For the molecule B6, the kcat is 0.325 s⁻¹.

On to B7, for which the kcat is 0.232 s⁻¹.

On to B8, for which the kcat is 0.185 s⁻¹.

Turning to B9, the kcat was 0.295 s⁻¹.

Turning to B10, the kcat was 0.143 s⁻¹.
